Earlier results on 1 substance are cited in publication PMC6829319.

This data set deals with CdiA toxin (Escherichia coli) (UniProt Q0T963).
Sequence of CdiA toxin (Escherichia coli) (Q0T963 3016-3242): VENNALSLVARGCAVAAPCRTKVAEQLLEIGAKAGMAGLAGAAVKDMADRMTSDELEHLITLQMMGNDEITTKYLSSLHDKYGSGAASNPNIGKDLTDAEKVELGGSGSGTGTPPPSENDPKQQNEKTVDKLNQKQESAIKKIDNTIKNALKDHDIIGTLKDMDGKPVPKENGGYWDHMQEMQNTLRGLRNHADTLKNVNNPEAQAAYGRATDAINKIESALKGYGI

Sequence of CysK (P0ABK5 2-323): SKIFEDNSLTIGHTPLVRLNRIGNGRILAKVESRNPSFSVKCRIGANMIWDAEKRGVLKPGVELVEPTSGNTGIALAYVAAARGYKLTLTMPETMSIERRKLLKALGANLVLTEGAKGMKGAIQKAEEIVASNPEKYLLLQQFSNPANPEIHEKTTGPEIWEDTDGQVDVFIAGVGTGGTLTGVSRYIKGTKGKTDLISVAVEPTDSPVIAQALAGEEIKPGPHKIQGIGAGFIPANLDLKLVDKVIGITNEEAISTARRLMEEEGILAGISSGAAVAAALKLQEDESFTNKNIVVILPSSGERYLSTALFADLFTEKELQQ

As to CysK (from UniProt P0ABK5), the Kd is 5 nM.

One may read the Kd as the constant that tells how readily two partners part at equilibrium.
